For assay [1], the target named is REFACTO® (recombinant factor VIII-like polypeptide consisting of amino acids 1-743 and 1638 through 2332 of human factor VIII) (human) (UniProt P00451). As to the kind of experiment: batch binding to peptide beads; target in fraction by sandwich ELISA. In general terms: In an ELISA, binding on a coated surface is turned into a signal by an enzyme label.
Assay [2] has the same target. The assay is described as follows: batch binding to regenerated peptide beads; target in fraction by sandwich ELISA.
Assay [3] has as its target native human factor VIII (nhfVIII) (human) (UniProt P00451). Described as above.
For assay [4], the target named is REFACTO® (recombinant factor VIII-like polypeptide consisting of amino acids 1-743 and 1638 through 2332 of human factor VIII) (human) (UniProt P00451). The assay is described as follows: affinity column, peptide on Toyopearl Formyl 650-M; target in fraction by RP-HPLC.
The target is the same in assay [5]. The assay is described as follows: affinity column, peptide on Toyopearl Formyl 650-M; target in fraction by activity assay.

Positions of bridges follow the written chain, without caps; N, C: chain ends. No end group written: not given here. *: point of attachment. NHNH2 = NN*

Sequence of native human factor VIII (nhfVIII) (human) (P00451 20-2351): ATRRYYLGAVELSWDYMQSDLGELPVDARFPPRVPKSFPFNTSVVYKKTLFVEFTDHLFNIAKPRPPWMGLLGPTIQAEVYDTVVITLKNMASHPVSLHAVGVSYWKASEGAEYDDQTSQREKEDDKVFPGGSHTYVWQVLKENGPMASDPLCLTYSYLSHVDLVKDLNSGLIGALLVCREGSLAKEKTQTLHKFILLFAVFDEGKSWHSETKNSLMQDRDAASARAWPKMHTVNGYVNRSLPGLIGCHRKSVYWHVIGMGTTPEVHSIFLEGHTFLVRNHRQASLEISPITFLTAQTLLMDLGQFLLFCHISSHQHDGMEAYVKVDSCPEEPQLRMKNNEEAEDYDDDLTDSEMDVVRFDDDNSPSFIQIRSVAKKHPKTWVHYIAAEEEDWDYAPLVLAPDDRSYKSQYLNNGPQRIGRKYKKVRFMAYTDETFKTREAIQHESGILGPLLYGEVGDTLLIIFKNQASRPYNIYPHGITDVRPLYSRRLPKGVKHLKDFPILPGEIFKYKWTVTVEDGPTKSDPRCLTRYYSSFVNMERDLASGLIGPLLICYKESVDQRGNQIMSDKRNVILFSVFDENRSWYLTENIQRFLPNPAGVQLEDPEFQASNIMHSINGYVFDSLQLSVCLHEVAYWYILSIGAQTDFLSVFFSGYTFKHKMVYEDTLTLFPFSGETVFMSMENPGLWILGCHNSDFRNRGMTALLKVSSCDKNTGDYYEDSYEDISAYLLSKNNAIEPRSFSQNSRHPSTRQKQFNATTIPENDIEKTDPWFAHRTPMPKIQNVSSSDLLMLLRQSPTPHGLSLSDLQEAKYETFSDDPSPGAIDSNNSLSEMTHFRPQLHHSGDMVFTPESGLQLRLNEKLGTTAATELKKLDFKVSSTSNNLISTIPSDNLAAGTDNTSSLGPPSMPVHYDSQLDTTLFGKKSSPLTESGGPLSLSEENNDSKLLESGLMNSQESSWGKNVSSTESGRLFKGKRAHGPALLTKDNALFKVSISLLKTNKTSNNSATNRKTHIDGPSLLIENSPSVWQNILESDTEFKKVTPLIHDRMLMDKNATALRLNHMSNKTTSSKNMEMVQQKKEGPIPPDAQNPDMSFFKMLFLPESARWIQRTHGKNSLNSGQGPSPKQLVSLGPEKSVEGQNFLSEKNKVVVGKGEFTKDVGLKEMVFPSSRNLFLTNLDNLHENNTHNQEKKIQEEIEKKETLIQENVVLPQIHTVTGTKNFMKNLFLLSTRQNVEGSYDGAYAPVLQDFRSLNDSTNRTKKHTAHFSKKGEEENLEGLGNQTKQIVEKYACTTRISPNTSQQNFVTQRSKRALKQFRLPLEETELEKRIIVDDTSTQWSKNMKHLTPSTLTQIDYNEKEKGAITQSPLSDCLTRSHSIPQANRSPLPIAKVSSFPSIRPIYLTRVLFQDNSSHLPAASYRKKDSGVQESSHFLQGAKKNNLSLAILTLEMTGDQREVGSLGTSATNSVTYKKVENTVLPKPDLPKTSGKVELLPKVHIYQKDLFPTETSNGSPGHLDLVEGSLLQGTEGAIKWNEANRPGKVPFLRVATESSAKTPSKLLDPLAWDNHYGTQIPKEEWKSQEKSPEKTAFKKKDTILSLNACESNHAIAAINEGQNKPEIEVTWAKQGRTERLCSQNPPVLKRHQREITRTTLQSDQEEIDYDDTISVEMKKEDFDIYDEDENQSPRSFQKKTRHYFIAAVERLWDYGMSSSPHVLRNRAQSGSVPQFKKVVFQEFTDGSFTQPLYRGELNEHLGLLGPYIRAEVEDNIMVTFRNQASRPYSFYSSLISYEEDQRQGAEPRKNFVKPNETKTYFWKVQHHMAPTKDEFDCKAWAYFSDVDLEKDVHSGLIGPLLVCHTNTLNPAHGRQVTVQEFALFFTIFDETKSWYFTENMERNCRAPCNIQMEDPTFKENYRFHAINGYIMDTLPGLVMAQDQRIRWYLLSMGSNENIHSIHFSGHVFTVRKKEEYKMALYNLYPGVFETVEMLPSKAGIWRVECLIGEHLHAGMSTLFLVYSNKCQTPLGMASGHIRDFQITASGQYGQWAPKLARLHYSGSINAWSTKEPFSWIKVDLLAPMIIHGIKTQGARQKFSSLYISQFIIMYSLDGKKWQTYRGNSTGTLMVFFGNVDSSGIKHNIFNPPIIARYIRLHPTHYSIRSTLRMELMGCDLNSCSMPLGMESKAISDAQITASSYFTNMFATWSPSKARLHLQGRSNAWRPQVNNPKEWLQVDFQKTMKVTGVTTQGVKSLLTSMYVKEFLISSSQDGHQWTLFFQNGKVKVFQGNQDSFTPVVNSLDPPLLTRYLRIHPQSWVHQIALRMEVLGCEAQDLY
Sequence of REFACTO® (recombinant factor VIII-like polypeptide consisting of amino acids 1-743 and 1638 through 2332 of human factor VIII) (human) (P00451 20-762, chain 1 of 2): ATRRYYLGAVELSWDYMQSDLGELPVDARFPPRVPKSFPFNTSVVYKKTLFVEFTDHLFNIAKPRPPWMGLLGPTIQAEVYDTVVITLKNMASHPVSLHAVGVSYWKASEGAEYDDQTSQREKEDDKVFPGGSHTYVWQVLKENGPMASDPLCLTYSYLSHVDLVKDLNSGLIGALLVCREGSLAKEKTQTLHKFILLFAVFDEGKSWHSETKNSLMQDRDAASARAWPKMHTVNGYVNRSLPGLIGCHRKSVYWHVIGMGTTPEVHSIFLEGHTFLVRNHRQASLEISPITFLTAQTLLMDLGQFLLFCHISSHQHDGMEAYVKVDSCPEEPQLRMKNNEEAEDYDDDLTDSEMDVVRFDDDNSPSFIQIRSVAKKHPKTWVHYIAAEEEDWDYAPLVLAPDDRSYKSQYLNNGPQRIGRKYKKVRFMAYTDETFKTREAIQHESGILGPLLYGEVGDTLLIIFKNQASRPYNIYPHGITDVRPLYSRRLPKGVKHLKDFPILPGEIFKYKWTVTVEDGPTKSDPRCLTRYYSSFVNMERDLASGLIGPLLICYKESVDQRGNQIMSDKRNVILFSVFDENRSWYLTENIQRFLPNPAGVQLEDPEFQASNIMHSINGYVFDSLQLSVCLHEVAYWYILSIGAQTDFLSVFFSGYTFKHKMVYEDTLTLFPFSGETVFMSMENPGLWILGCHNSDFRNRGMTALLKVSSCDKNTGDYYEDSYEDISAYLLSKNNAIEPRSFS
Sequence of REFACTO® (recombinant factor VIII-like polypeptide consisting of amino acids 1-743 and 1638 through 2332 of human factor VIII) (human) (P00451 1657-2351, chain 2 of 2): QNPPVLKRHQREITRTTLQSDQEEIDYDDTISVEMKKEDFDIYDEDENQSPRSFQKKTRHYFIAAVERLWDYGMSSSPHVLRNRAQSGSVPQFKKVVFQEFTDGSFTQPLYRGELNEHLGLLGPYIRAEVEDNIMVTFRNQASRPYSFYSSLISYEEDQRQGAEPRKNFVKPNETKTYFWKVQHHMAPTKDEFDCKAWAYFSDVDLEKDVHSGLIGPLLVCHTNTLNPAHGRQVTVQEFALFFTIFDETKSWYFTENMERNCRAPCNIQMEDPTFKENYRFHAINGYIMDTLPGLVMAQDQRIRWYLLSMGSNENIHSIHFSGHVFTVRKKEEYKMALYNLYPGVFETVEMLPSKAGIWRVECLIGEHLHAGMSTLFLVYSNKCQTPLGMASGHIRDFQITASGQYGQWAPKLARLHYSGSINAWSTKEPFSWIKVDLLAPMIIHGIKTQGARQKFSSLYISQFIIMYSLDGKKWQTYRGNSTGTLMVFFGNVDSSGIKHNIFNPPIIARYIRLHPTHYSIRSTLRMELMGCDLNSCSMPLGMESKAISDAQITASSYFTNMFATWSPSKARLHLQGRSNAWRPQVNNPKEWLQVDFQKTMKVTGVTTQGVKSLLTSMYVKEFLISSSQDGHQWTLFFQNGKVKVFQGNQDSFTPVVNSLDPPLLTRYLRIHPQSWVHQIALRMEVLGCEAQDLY

With AEGTGDFCWVFAFDHCHDPGPEGGGS-NHNH2 (disulfide 8-16 (inferred)) [Affinity ligand CS-458], in assay [1], the % of Input Recovered in Eluate is 47%, the % of Input Recovered in Unbound stood at 20% and the % of Input Recovered in Wash was 10%. Also, in assay [2], the % of Total Recovered in Eluate is 27%, the % of Total Recovered in Unbound was 59% and the % of Total Recovered in Wash was determined as 14%. In addition, in assay [3], the % of Total Recovered in Eluate amounted to 39%, the % of Total Recovered in Unbound was found to be 48% and the % of Total Recovered in Wash was 13%. Also, in assay [4], the % recovery, Elution A was 54.3%; the % recovery, Elution B is 0%; the % recovery, Flow came to 1.8%; the % recovery, pH2 came out at 0%. For the same molecule, in assay [5], the % recovery, Elution A turned out to be 55.6% and the % recovery, Flow amounted to 1.4%.

The values above are taken from patent US20060193829A1.
